The values that follow come from patent US20250242041A1 (Seagen, published 2025).

Assay [1] has as its target T1, human αvβ6 on 293F:huβ6 cells (human, UniProt P06756 31-1048; P18564 22-788).
T1 chain 1: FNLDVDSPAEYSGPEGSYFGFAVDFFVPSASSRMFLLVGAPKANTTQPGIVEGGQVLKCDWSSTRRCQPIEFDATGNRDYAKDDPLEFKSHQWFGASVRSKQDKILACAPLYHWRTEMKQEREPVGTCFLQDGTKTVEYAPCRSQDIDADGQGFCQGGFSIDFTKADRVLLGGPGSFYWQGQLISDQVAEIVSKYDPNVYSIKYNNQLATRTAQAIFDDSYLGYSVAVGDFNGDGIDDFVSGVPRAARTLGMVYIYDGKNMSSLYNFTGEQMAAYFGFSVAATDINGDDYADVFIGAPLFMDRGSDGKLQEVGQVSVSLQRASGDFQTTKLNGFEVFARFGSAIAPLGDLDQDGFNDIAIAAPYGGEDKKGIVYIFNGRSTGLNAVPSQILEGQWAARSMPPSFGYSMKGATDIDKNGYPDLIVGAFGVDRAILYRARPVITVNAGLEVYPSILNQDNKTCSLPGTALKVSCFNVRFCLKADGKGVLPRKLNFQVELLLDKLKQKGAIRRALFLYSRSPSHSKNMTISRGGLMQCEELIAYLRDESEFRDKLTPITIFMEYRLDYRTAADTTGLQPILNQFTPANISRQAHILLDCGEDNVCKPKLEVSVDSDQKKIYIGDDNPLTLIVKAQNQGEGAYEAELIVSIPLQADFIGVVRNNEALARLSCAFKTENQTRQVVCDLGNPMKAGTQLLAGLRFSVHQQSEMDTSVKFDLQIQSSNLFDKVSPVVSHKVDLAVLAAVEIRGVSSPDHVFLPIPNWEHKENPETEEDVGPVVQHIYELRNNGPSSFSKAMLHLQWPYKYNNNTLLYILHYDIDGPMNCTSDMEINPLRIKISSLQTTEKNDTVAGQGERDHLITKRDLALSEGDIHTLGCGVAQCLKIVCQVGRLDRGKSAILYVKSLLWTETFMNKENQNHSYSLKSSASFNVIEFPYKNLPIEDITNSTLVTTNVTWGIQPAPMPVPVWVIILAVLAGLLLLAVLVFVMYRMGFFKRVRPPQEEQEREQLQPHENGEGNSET
T1 chain 2: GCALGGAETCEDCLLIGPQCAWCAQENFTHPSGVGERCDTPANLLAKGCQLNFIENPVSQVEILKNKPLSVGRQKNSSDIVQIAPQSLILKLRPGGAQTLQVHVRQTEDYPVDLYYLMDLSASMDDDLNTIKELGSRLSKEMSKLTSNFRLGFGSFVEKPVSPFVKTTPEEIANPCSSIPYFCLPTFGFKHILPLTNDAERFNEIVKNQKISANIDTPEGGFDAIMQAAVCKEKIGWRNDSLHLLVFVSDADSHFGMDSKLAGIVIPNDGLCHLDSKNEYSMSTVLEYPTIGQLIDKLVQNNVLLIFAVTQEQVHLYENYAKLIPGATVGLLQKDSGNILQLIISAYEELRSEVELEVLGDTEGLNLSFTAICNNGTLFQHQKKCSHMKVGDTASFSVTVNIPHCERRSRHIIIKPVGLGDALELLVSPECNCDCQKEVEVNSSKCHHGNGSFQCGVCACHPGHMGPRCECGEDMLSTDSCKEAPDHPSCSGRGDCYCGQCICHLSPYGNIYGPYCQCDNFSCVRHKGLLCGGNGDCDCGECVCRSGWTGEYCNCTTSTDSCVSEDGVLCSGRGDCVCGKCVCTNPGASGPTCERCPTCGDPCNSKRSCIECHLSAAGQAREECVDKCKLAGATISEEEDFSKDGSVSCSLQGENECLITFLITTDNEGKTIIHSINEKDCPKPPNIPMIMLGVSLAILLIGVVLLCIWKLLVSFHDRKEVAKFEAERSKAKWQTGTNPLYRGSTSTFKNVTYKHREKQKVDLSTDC
Put plainly: saturation binding on 293F cells; AF647-labeled.

Assay [2] concerns the target T1, human αvβ6 on 293F:huβ6 cells. The experiment in a line: competition binding on 293F cells.
In assay [3] the target is T2, cyno αvβ6 on 293F:cynoβ6 cells (human;Macaca fascicularis, UniProt P06756 31-1048; A0A2K5TZ36 22-787).
T2 chain 1: T1 chain 1
T2 chain 2: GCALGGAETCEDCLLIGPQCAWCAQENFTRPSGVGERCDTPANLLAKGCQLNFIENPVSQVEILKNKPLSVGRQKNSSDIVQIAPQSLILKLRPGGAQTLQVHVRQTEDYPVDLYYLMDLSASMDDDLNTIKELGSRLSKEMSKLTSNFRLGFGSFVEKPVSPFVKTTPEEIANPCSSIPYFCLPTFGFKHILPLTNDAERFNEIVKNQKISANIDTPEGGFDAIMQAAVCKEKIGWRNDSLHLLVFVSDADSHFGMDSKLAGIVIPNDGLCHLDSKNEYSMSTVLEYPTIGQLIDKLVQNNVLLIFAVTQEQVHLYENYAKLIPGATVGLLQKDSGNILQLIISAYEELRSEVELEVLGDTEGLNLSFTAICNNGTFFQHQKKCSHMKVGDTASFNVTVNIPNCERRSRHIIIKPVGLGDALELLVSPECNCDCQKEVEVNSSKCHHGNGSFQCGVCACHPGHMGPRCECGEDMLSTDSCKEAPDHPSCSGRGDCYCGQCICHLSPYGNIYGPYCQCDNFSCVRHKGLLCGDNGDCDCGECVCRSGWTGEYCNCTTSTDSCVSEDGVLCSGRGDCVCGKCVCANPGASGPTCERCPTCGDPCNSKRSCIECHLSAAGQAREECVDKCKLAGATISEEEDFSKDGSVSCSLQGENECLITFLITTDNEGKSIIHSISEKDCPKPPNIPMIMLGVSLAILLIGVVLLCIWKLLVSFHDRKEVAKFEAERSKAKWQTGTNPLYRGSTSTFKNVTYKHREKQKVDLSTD
The experiment in a line: competition binding on 293F cells.

B1: h2A2 HCLG humanized antibody (antibody, human IgG1, kappa, V domains shown)
VH: QFQLVQSGAEVKKPGASVKVSCKASGYSFTDYNVNWVRQAPGQGLEWIGVINPKYGTTRYNQKFKGRATLTVDKSTSTAYMELSSLRSEDTAVYYCTRGLNAWDYWGQGTLVTVSS
VL: DIQMTQSPSSLSASVGDRVTITCGASENIYGALNWYQQKPGKAPKLLIYGATNLEDGVPSRFSGSGSGRDYTFTISSLQPEDIATYYCQNVLTTPYTFGQGTKLEIKR
notes: Labelled with AlexaFluor-647 in the saturation assay; also called humanized 2A2 HCLG
As usually defined, the EC50 is the concentration giving half of the maximal effect. The low end stands for greater potency, the high end for weaker potency. As for B1, the values for the EC50 in assay [1], in assay [2] and in assay [3] were 0.3 nM, 3 nM and 3 nM, respectively.
